Source: PMC2807882, “Conservation of DNA-binding specificity and oligomerisation properties within the p53 family”

Assays:
Test in all cases: fluorescence anisotropy, direct; 25 mM NaPi, 225 mM NaCl, 10% v/v glycerol, 5 mM DTT, 0.2 mg/mL BSA, 22°C; 20 nM labelled DNA; pH not stated for the binding assay
Conditions in all cases: protein: recombinant; tags: N-terminal 6xHis-lipoyl-TEV tag, cleaved; chain copies: 4; label: 5'-Alexa488
ΔNp63γ = target: T1, ΔNp63γ (Homo sapiens, UniProt Q9H3D4-6 1-393)
T1 sequence: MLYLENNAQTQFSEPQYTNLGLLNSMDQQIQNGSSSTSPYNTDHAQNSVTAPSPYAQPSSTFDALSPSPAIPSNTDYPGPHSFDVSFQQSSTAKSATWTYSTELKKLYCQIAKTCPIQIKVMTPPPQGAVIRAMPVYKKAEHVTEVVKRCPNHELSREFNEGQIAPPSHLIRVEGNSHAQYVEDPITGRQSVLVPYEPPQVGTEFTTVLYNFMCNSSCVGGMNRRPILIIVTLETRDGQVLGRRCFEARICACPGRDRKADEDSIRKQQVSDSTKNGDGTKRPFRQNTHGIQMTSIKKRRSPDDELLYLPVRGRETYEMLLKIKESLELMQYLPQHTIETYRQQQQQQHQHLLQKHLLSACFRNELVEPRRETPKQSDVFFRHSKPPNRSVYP

Mmp53 = Mmp53 (Mus musculus, UniProt P02340 1-390)
Chain of Mmp53 (P02340 whole entry): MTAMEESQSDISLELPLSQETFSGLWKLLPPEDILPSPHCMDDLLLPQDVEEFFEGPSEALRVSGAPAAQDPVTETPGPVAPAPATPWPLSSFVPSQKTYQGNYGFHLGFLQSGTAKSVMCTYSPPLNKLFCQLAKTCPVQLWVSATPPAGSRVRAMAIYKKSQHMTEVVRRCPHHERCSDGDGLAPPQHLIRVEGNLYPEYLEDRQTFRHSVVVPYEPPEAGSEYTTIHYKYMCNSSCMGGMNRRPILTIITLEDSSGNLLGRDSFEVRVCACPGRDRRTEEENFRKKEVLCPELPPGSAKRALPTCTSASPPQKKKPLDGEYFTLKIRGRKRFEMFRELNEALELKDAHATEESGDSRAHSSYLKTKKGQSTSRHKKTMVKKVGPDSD

Dmp53 = target: T2, Dmp53 (Drosophila melanogaster, UniProt Q9N6D8 1-385)
T2 sequence: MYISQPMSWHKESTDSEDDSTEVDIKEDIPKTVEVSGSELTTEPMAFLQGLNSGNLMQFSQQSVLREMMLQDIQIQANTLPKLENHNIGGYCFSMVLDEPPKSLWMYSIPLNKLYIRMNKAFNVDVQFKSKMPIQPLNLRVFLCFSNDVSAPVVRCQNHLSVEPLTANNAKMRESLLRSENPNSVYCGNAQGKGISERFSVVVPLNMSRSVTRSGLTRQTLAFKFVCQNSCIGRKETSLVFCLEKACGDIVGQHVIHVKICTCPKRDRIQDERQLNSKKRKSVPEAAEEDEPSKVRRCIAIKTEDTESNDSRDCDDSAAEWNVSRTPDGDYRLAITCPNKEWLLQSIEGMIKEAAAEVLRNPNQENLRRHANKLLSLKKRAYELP

ΔNp63α = target: T3, ΔNp63α (Homo sapiens, UniProt Q9H3D4-2 1-586)
T3 sequence: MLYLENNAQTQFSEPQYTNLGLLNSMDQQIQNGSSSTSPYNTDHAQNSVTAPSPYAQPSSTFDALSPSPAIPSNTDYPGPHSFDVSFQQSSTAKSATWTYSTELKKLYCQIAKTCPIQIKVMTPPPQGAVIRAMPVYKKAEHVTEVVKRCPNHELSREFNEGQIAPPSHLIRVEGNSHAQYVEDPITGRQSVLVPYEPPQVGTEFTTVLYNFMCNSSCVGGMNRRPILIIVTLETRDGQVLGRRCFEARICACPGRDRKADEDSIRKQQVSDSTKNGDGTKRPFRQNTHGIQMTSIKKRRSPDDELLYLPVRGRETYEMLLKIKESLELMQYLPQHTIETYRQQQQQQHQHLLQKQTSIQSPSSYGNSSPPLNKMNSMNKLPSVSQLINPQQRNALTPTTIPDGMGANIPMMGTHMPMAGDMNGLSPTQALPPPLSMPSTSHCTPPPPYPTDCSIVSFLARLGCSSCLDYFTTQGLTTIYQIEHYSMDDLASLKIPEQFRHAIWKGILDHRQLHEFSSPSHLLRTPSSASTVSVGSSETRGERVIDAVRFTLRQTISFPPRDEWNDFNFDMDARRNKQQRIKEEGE

Xlp53 = Xlp53 (Xenopus laevis, UniProt Q7T1D0 1-362)
Chain of Xlp53 (Q7T1D0 entry or part of it): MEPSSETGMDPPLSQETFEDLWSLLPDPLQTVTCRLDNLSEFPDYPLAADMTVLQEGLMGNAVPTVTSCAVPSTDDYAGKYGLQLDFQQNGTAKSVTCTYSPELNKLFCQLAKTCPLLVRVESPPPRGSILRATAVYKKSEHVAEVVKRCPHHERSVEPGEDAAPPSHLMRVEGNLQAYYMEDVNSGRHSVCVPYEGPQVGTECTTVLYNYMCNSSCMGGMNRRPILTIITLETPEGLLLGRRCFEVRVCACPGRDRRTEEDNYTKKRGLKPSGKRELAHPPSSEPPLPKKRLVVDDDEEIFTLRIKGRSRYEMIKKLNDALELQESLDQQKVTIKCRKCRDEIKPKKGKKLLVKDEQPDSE

p73CT = target: T4, p73CT (Homo sapiens, UniProt O15350 104-383)
T4 sequence: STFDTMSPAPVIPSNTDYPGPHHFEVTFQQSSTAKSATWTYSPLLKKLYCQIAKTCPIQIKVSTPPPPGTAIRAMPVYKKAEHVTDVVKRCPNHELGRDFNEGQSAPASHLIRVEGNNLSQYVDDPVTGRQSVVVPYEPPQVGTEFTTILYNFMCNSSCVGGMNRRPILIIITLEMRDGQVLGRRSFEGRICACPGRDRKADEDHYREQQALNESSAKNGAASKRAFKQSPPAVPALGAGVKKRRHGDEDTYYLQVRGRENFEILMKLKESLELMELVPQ

ΔNp73β = target: T5, ΔNp73β (Homo sapiens, UniProt O15350-9 1-450)
T5 sequence: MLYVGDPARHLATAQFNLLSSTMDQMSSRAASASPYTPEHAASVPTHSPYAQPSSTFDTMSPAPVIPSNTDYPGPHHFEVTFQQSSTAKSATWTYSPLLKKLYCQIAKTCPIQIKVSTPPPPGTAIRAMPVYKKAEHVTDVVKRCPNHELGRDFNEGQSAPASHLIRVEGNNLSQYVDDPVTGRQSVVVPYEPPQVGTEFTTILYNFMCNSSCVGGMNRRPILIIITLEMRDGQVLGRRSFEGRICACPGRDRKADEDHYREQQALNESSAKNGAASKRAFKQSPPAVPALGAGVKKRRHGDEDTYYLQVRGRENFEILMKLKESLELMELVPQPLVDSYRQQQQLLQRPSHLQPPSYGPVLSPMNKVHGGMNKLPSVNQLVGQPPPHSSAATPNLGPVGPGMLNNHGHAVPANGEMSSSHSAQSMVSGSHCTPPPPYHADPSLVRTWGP

B1: Ref_Alexa488 (dsDNA)
DNA 1: GGACATGTCCGGACATGTCC
DNA 2: GGACATGTCCGGACATGTCC
In the case of B1, the Kd (ΔNp63γ) is reported as -7.17 ± 0.02 log10(M), the Kd (Mmp53) is reported as -7.02 ± 0.04 log10(M) and the Kd (Dmp53) is reported as -7.28 ± 0.03 log10(M). The Kd (ΔNp63α) was -7.12 ± 0.01 log10(M), the Kd (Xlp53) was -7.32 ± 0.02 log10(M) and the Kd (p73CT) was -6.62 ± 0.04 log10(M). The Kd (ΔNp73β) was -7.26 ± 0.02 log10(M).
